T1: mAng-2 (mouse, UniProt O35608)
T1 chain: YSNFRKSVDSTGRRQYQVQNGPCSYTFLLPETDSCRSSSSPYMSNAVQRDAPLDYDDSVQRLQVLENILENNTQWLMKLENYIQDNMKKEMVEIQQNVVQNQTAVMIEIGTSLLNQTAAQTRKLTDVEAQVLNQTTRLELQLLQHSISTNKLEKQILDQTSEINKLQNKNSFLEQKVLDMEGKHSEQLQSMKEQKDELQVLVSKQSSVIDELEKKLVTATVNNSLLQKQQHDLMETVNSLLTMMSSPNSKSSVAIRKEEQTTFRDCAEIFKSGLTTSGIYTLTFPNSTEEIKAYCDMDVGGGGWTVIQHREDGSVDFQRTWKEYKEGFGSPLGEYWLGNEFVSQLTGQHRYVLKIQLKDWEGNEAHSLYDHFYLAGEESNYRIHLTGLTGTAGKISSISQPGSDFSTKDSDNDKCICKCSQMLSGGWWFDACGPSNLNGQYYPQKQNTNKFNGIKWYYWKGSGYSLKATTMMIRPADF

T2: hAng-2 (human, UniProt O15123)
T2 chain: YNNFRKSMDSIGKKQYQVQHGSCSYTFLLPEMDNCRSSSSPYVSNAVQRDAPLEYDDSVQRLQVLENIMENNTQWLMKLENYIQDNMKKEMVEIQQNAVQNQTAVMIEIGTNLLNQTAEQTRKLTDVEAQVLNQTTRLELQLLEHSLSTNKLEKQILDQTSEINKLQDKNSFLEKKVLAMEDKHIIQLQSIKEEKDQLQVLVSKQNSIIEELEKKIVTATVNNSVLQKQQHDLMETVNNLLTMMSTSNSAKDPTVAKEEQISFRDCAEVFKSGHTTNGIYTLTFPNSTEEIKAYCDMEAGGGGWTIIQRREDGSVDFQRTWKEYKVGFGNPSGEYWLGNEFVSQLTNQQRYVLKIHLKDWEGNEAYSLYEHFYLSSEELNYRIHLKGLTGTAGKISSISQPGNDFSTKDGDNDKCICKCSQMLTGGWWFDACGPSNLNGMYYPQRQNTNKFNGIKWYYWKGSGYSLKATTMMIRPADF

T3: hAng-1 (human, UniProt Q15389)
T3 chain: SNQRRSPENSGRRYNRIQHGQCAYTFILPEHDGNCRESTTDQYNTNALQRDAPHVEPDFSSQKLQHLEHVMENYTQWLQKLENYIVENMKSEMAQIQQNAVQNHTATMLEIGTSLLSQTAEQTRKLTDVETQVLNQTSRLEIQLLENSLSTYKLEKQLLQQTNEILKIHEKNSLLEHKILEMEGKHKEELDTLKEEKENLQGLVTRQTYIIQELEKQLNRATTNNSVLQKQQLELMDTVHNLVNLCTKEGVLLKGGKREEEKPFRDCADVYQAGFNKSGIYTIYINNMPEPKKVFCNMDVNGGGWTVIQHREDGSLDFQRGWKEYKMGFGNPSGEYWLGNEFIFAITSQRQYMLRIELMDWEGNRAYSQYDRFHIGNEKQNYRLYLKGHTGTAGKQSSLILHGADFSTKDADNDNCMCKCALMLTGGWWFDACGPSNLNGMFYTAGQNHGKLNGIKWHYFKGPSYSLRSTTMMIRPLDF


Experiments:
mAng-2 = biological target: T1, mAng-2; test: competition ELISA (Tie2-Fc)
hAng-2 = biological target: T2, hAng-2; test: competition ELISA (Tie2-Fc)
hAng-1 [1] = biological target: T3, hAng-1; test: competition ELISA (no inhibition)
hAng-1 [2] = biological target: T3, hAng-1; test: competition ELISA (Tie2-Fc)

Binder | IC50 (mAng-2) | IC50 (hAng-2) | binding result (hAng-1 [1]) | IC50 (hAng-1 [2])
Ab 546 (antibody, V domains shown) VH: not shown VL: QSVLTQPSSVSEAPRQRVTISCSGSASNIGANGVSWYHQVPGKAPRLLLSHDGLVTSGVPDRLSVSKSGTSASLAISGLHSDDEGDYYCAVWDDSLNAVVFGGGTKLTVL | 1.09 nM | 0.37 nM | no binding | –
Ab 533 (antibody, V domains shown) VH: EVQLVQSGGGVVQPGRSLRLSCAASGFTFSSYGMHWVRQAPGKGLEWVSYISSSGSTIYYADSVKGRFTISRDNAKNSLYLQMNSLRAEDTAVYYCARDLLDYDILTGYGYWGQGTLVTVSS VL: SYELTQPPSVSVSPGQTARITCSGDALPKQYAYWYQQKPGQAPVLVIYKDSERPSGIPERFSGSSSGTTVTLTISGVQAEDEADYYCQSADSSHVVFGGGTKLTVL | 0.08 nM | 0.3 nM | no binding | –
Ab 528 (antibody, V domains shown) VH: QVQLVQSGAEVKKPGSSVKVSCKASGGTFSSYAISWVRQAPGQGLEWMGGIIPIFGTANYAQKFQGRVTITADESTSTAYMELSSLRSEDTAVYYCARGVVGDFDWLSFFDYWGQGTLVTVSS VL: SYELTQPPSVSVSPGQTASITCSGDKLGYTYTSWFQQKPGQSPVLVIFQDFKRPSGIPERFSGSNSGNTATLTISGTQAMDEADYYCQAWDSTTAVVFGTGTKVTVL | – | – | no binding | –
Ab 540 (antibody, V domains shown) VH: QVQLVQSGAEVKKPGSSVKVSCKASGGTFSSYAISWVRQAPGQGLEWMGGIIPILGIANYAQKFQGRVTITADKFTSTAYMELSSLGSEDTAVYYCARAVPGTEDAFDIWGQGTMVTVSS VL: QSVLTQPPSVSAAPGQKVTISCSGSSSNIGANYVSWYQQLPGTAPKLLIYNNNKRPSGIPDRFSGSKSDTSATLGITGLQTGDEADYYCGAWDSSLSASWVFGGGTKLTVL | – | – | no binding | –
Ab 553 (antibody, V domains shown) VH: QVQLVQSGAEVKKPGASVKVSCKASGYTFTSYAMHWVRQAPGQRLEWMGWINAGNGNTKYSQKFQGRVTITRDTSASTAYMELSGLRSEDTAVYYCARGVDDYGGNSWAFDIWGQGTMVTVSS VL: DIVMTQSPLSLPVTPGEPASISCRSSQSLLHSNGYNYLDWYLQKPGQSPQLLIYLGSNRASGVPDRFTGSGSATDFTLRISRVEAEDVGVYYCMQALQTPLTFGGGTKVEIK | – | – | no binding | –
Ab 537 (antibody, V domains shown) VH: QVQLVQSGAEVKKPGSSVKVSCKASGGTFSSYAISWVRQAPGQGLEWMGGIIPILGIANYAQKFQGRVTITADKSTSTAYMELSGLGSEDTAVYYCARGSSDAAVAGMWGQGTLVTVSS VL: QSVLTQPPSVSAAPGQDVTISCSGNNSNIGNNYVSWYQQVPGTAPKLLVYDNHKRPSGISDRFSGSKSDTSATLDITGLQPGDEADYYCGTWDTSLSANWVFGGGTKLTVL | – | – | no binding | –
Ab 565 (antibody, V domains shown) VH: QVQLVQSGAEVKKPGSSVKVSCKASGGTFSSYAISWVRQAPGQGLEWMGGIIPIFGTANYAQKFQGRVTITADESTSTAYMELSSLRSEDTAVYYCARSPIYYDILTGIDAFDIWGQGTMVTVSS VL: EIVLTQSPGTLSLSPGERATLSCRASQSVSSSSLAWYQQKPGQAPRLLVYAASSRATGIPDRFSGSGSGTDFTLTISRLEPEDFAVYYCQHYGSSPRTFGQGTKVEIK | 0.26 nM | 0.26 nM | no binding | –
Ab 544 (antibody, V domains shown) VH: QVQLVQSGAEVKKPGASVKVSCKASGGTFSSYAISWVRQAPGQGLEWMGGIIPIFGTANYAQKFQGRVTITADESTSTAYMELSSLRSEDTAVYYCARFESGYWGDAFDIWGQGTMVTVSS VL: not shown | 1.82 nM | 0.97 nM | – | 23.3 nM
Ab 543 (antibody, V domains shown) VH: QVQLVQSGAEVKKPGSSVKVSCKASGGTFSSYAISWVRQAPGQGLEWMGRIIPILGIANYAQKFQGRVTITADKSTSTAYMELSSLRSEDTAVYYCARPYYDFWSGPGGMDVWGQGTTVTVSS VL: not shown | – | – | no binding | –
Ab 531 (antibody, V domains shown) VH: EVQLVQSGAEVKKPGSSVKVSCKASGGTFSSYAISWVRQAPGQGLEWMGGIIPILGIANYAQKFQGRVTITADKSTNTAYMELTSLTSDDTAVYYCARDREDTAMVFNYWGQGTLVTVSS VL: QSVLTQPPSVSAAPGQKVTVSCSGSSSNIGNNYVSWYQQLPGTAPKLLIYDNNKRPSGIPDRFSGSKSGTSATLGITGLQTGDEADYYCGTWDSSLSAFWVFGGGTKLTVL | – | – | no binding | –
Ab 555 (antibody, V domains shown) VH: QVQLQESGGGVVQPGRSLRLSCAASGFTFSSYAMHWVRQAPGKGLEWVAVISYDGSNKYYADSVKGRFTISRDNSKNTLYLQMNSLRAEDTAVYYCARSASDHYYDSSGYYSDAFDIWGQGTMVTVSS VL: not shown | – | – | no binding | –
Ab 535 (antibody, V domains shown) VH: QVQLVQSGAEVKKPGSSVKVSCKASGGTFSSYAISWVRQAPGQGLEWMGGIIPIFGTANYAQKFQGRVTITADKSTSTAYMELSSLRSEDTAVYYCAAFSPFTETDAFDIWGQGTMVTVSS VL: QSVLTQPPSVSAAPGQKVTISCSGSNSNIGNNFVSWYQQLPGTAPKLLVYDNNKRPSGIPDRFSGSKSGTSATLGITGLQTGDEADYYCGTWDSSLSAAEVVFGGGTKLTVL | – | – | no binding | –
Ab 551 (antibody, V domains shown) VH: QVQLVQSGAEVKKPGSSVKVSCKASGGTFSSYAISWVRQAPGQGLEWMGGIIPIFGTANYAQKFQGRVTITADESTSTAYMELSSLRSEDTAVYYCARGYDFWSGYSLDAFDIWGQGTMVTVSS VL: not shown | – | – | no binding | –

Source: patent US7521053 (dated 2009)
